Assay results as given in IntAct's records for PubMed 19037309.

B1: DELLA protein GAI (Arabidopsis thaliana (Mouse-ear cress)), Q9LQT8 (parent)
chain: MKRDHHHHHHQDKKTMMMNEEDDGNGMDELLAVLGYKVRSSEMADVAQKLEQLEVMMSNVQEDDLSQLATETVHYNPAELYTWLDSMLTDLNPPSSNAEYDLKAIPGDAILNQFAIDSASSSNQGGGGDTYTTNKRLKCSNGVVETTTATAESTRHVVLVDSQENGVRLVHALLACAEAVQKENLTVAEALVKQIGFLAVSQIGAMRKVATYFAEALARRIYRLSPSQSPIDHSLSDTLQMHFYETCPYLKFAHFTANQAILEAFQGKKRVHVIDFSMSQGLQWPALMQALALRPGGPPVFRLTGIGPPAPDNFDYLHEVGCKLAHLAEAIHVEFEYRGFVANTLADLDASMLELRPSEIESVAVNSVFELHKLLGRPGAIDKVLGVVNQIKPEIFTVVEQESNHNSPIFLDRFTESLHYYSTLFDSLEGVPSGQDKVMSEVYLGKQICNVVACDGPDRVERHETLSQWRNRFGSAGFAAAHIGSNAFKQASMLLALFNGGEGYRVEESDGCLMLGWHTRPLIATSAWKLSTN
partner: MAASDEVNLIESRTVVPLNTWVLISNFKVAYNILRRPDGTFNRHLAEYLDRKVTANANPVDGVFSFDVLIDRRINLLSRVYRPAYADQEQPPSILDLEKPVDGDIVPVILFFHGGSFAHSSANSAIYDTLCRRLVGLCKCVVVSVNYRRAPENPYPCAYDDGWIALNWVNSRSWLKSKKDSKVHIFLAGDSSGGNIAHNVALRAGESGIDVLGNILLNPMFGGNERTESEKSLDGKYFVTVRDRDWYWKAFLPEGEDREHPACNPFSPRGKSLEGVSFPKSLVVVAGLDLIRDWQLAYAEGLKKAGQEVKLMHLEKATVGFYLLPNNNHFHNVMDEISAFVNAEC

Variants of: B1
Settings: with gid1a_arath GID1A

effect of a mutation on the interaction | Variant
disrupting interaction | MKRDHHHHHHQDKKTMMMNEEDDGNGMDELLAVLGAKVRSSEAADVAQKLEQLEVMMSNVQEDDLSQLATETVHYNPAELYTWLDSMLTDLNPPSSNAEYDLKAIPGDAILNQFAIDSASSSNQGGGGDTYTTNKRLKCSNGVVETTTATAESTRHVVLVDSQENGVRLVHALLACAEAVQKENLTVAEALVKQIGFLAVSQIGAMRKVATYFAEALARRIYRLSPSQSPIDHSLSDTLQMHFYETCPYLKFAHFTANQAILEAFQGKKRVHVIDFSMSQGLQWPALMQALALRPGGPPVFRLTGIGPPAPDNFDYLHEVGCKLAHLAEAIHVEFEYRGFVANTLADLDASMLELRPSEIESVAVNSVFELHKLLGRPGAIDKVLGVVNQIKPEIFTVVEQESNHNSPIFLDRFTESLHYYSTLFDSLEGVPSGQDKVMSEVYLGKQICNVVACDGPDRVERHETLSQWRNRFGSAGFAAAHIGSNAFKQASMLLALFNGGEGYRVEESDGCLMLGWHTRPLIATSAWKLSTN [Y36A;M43A]
decreasing interaction | MKRDHHHHHHQDKKTMMMNEEDDGNGMDELLAVLGAKVRSSEMADVAQKLEQLEVMMSNVQEDDLSQLATETVHYNPAELYTWLDSMLTDLNPPSSNAEYDLKAIPGDAILNQFAIDSASSSNQGGGGDTYTTNKRLKCSNGVVETTTATAESTRHVVLVDSQENGVRLVHALLACAEAVQKENLTVAEALVKQIGFLAVSQIGAMRKVATYFAEALARRIYRLSPSQSPIDHSLSDTLQMHFYETCPYLKFAHFTANQAILEAFQGKKRVHVIDFSMSQGLQWPALMQALALRPGGPPVFRLTGIGPPAPDNFDYLHEVGCKLAHLAEAIHVEFEYRGFVANTLADLDASMLELRPSEIESVAVNSVFELHKLLGRPGAIDKVLGVVNQIKPEIFTVVEQESNHNSPIFLDRFTESLHYYSTLFDSLEGVPSGQDKVMSEVYLGKQICNVVACDGPDRVERHETLSQWRNRFGSAGFAAAHIGSNAFKQASMLLALFNGGEGYRVEESDGCLMLGWHTRPLIATSAWKLSTN [Y36A]
disrupting interaction | MKRDHHHHHHQDKKTMMMNEEDDGNGMDELAAVLGYKARSSEMADVAQKLEQLEVMMSNVQEDDLSQLATETVHYNPAELYTWLDSMLTDLNPPSSNAEYDLKAIPGDAILNQFAIDSASSSNQGGGGDTYTTNKRLKCSNGVVETTTATAESTRHVVLVDSQENGVRLVHALLACAEAVQKENLTVAEALVKQIGFLAVSQIGAMRKVATYFAEALARRIYRLSPSQSPIDHSLSDTLQMHFYETCPYLKFAHFTANQAILEAFQGKKRVHVIDFSMSQGLQWPALMQALALRPGGPPVFRLTGIGPPAPDNFDYLHEVGCKLAHLAEAIHVEFEYRGFVANTLADLDASMLELRPSEIESVAVNSVFELHKLLGRPGAIDKVLGVVNQIKPEIFTVVEQESNHNSPIFLDRFTESLHYYSTLFDSLEGVPSGQDKVMSEVYLGKQICNVVACDGPDRVERHETLSQWRNRFGSAGFAAAHIGSNAFKQASMLLALFNGGEGYRVEESDGCLMLGWHTRPLIATSAWKLSTN [L31A;V38A]
disrupting interaction | MKRDHHHHHHQDKKTMMMNEEDDGNGMDELLAVLGYKVRSSEMADVAQKLRQLRVMMSNVQEDDLSQLATETVHYNPAELYTWLDSMLTDLNPPSSNAEYDLKAIPGDAILNQFAIDSASSSNQGGGGDTYTTNKRLKCSNGVVETTTATAESTRHVVLVDSQENGVRLVHALLACAEAVQKENLTVAEALVKQIGFLAVSQIGAMRKVATYFAEALARRIYRLSPSQSPIDHSLSDTLQMHFYETCPYLKFAHFTANQAILEAFQGKKRVHVIDFSMSQGLQWPALMQALALRPGGPPVFRLTGIGPPAPDNFDYLHEVGCKLAHLAEAIHVEFEYRGFVANTLADLDASMLELRPSEIESVAVNSVFELHKLLGRPGAIDKVLGVVNQIKPEIFTVVEQESNHNSPIFLDRFTESLHYYSTLFDSLEGVPSGQDKVMSEVYLGKQICNVVACDGPDRVERHETLSQWRNRFGSAGFAAAHIGSNAFKQASMLLALFNGGEGYRVEESDGCLMLGWHTRPLIATSAWKLSTN [E51R;E54R]
